Experimental data as given in doi:10.1101/2022.03.02.482546.
Blank lines part the entries; values can stand above or below the molecule they belong to.

Biological target: soluble form of full-length LRP1 (low-density lipoprotein receptor-related protein 1) (human)
Experiment: ELISA

Kd: > 200 nM
Molecule: recombinant human leukemia inhibitory factor (from UniProt P15018 23-202) (ligand)

Kd: 20.2 nM
Molecule: recombinant human ADAMTS1 (from UniProt Q9UHI8 50-967) (enzyme)

Kd: 6.4 nM
Molecule: recombinant human high-mobility group protein B1 (from UniProt P09429 1-215) (natural protein)

Kd: 11 nM
Molecule: recombinant human tumour necrosis factor-inducible gene 6 protein (from UniProt P98066 18-277) (natural protein)

Kd: > 500 nM
B1: recombinant human hepatocyte growth factor activator (enzyme)
chain: QPGGNRTESPEPNATATPAIPTILVTSVTSETPATSAPEAEGPQSGGLPPPPRAVPSSSSPQAQALTEDGRPCRFPFRYGGRMLHACTSEGSAHRKWCATTHNYDRDRAWGYCVEATPPPGGPAALDPCASGPCLNGGSCSNTQDPQSYHCSCPRAFTGKDCGTEKCFDETRYEYLEGGDRWARVRQGHVEQCECFGGRTWCEGTRHTACLSSPCLNGGTCHLIVATGTTVCACPPGFAGRLCNIEPDERCFLGNGTGYRGVASTSASGLSCLAWNSDLLYQELHVDSVGAAALLGLGPHAYCRNPDNDERPWCYVVKDSALSWEYCRLEACESLTRVQLSPDLLATLPEPASPGRQACGRRHKKRTFLRPRIIGGSSSLPGSHPWLAAIYIGDSFCAGSLVHTCWVVSAAHCFSHSPPRDSVSVVLGQHFFNRTTDVTQTFGIEKYIPYTLYSVFNPSDHDLVLIRLKKKGDRCATRSQFVQPICLPEPGSTFPAGHKCQIAGWGHLDENVSGYSSSLREALVPLVADHKCSSPEVYGADISPNMLCAGYFDCKSDACQGDSGGPLACEKNGVAYLYGIISWGDGCGRLHKPGVYTRVANYVDWINDRIRPPRRLVAPS

Kd: 2.6 nM
B2: full-length human CEMIP (cell migration-inducing and hyaluronan-binding protein) (natural protein)
chain: TVAAGCPDQSPELQPWNPGHDQDHHVHIGQGKTLLLTSSATVYSIHISEGGKLVIKDHDEPIVLRTRHILIDNGGELHAGSALCPFQGNFTIILYGRADEGIQPDPYYGLKYIGVGKGGALELHGQKKLSWTFLNKTLHPGGMAEGGYFFERSWGHRGVIVHVIDPKSGTVIHSDRFDTYRSKKESERLVQYLNAVPDGRILSVAVNDEGSRNLDDMARKAMTKLGSKHFLHLGFRHPWSFLTVKGNPSSSVEDHIEYHGHRGSAAARVFKLFQTEHGEYFNVSLSSEWVQDVEWTEWFDHDKVSQTKGGEKISDLWKAHPGKICNRPIDIQATTMDGVNLSTEVVYKKGQDYRFACYDRGRACRSYRVRFLCGKPVRPKLTVTIDTNVNSTILNLEDNVQSWKPGDTLVIASTDYSMYQAEEFQVLPCRSCAPNQVKVAGKPMYLHIGEEIDGVDMRAEVGLLSRNIIVMGEMEDKCYPYRNHICNFFDFDTFGGHIKFALGFKAAHLEGTELKHMGQQLVGQYPIHFHLAGDVDERGGYDPPTYIRDLSIHHTFSRCVTVHGSNGLLIKDVVGYNSLGHCFFTEDGPEERNTFDHCLGLLVKSGTLLPSDRDSKMCKMITEDSYPGYIPKPRQDCNAVSTFWMANPNNNLINCAAAGSEETGFWFIFHHVPTGPSVGMYSPGYSEHIPLGKFYNNRAHSNYRAGMIIDNGVKTTEASAKDKRPFLSIISARYSPHQDADPLKPREPAIIRHFIAYKNQDHGAWLRGGDVWLDSCRFADNGIGLTLASGGTFPYDDGSKQEIKNSLFVGESGNVGTEMMDNRIWGPGGLDHSGRTLPIGQNFPIRGIQLYDGPINIQNCTFRKFVALEGRHTSALAFRLNNAWQSCPHNNVTGIAFEDVPITSRVFFGEPGPWFNQLDMDGDKTSVFHDVDGSVSEYPGSYLTKNDNWLVRHPDCINVPDWRGAICSGCYAQMYIQAYKTSNLRMKIIKNDFPSHPLYLEGALTRSTHYQQYQPVVTLQKGYTIHWDQTAPAELAIWLINFNKGDWIRVGLCYPRGTTFSILSDVHNRLLKQTSKTGVFVRTLQMDKVEQSYPGRSHYYWDEDSGLLFLKLKAQNEREKFAFCSMKGCERIKIKALIPKNAGVSDCTATAYPKFTERAVVDVPMPKKLFGSQLKTKDHFLEVKMESSKQHFFHLWNDFAYIEVDGKKYPSSEDGIQVVVIDGNQGRVVSHTSFRNSILQGIPWQLFNYVATIPDNSIVLMASKGRYVSRGPWTRVLEKLGADRGLKLKEQMAFVGFKGSFRPIWVTLDTEDHKAKIFQVVPIPVVKKKKL

Kd: 11 nM
B3: recombinant human insulin-like growth factor-binding protein 7 (natural protein)
chain: SSSDTCGPCEPASCPPLPPLGCLLGETRDACGCCPMCARGEGEPCGGGGAGRGYCAPGMECVKSRKRRKGKAGAAAGGPGVSGVCVCKSRYPVCGSDGTTYPSGCQLRAASQRAESRGEKAITQVSKGTCEQGPSIVTPPKDIWNVTGAQVYLSCEVIGIPTPVLIWNKVKRGHYGVQRTELLPGDRDNLAIQTRGGPEKHEVTGWVLVSPLSKEDAGEYECHASNSQGQASASAKITVVDALHEIPVKKGEGAEL

Kd: 3.9 nM
B4: recombinant human high-mobility group protein B2 (natural protein)
chain: MGKGDPNKPRGKMSSYAFFVQTCREEHKKKHPDSSVNFAEFSKKCSERWKTMSAKEKSKFEDMAKSDKARYDREMKNYVPPKGDKKGKKKDPNAPKRPPSAFFLFCSEHRPKIKSEHPGLSIGDTAKKLGEMWSEQSAKDKQPYEQKAAKLKEKYEKDIAAYRAKGKSEAGKKGPGRPTGSKKKNEPEDEEEEEEEEDEDEEEEDEDEE

Kd: 41 nM
B5: recombinant human secreted protein acidic and rich in cysteine (natural protein)
chain: APQQEALPDETEVVEETVAEVTEVSVGANPVQVEVGEFDDGAEETEEEVVAENPCQNHHCKHGKVCELDENNTPMCVCQDPTSCPAPIGEFEKVCSNDNKTFDSSCHFFATKCTLEGTKKGHKLHLDYIGPCKYIPPCLDSELTEFPLRMRDWLKNVLVTLYERDEDNNLLTEKQKLRVKKIHENEKRLEAGDHPVELLARDFEKNYNMYIFPVHWQFGQLDQHPIDGYLSHTELAPLRAPLIPMEHCTTRFFETCDLDNDKYIALDEWAGCFGIKQKDIDKDLVI

Kd: 2 nM
B6: recombinant human slit homolog 2 protein (ligand)
chain: QCSCSGSTVDCHGLALRSVPRNIPRNTERLDLNGNNITRITKTDFAGLRHLRVLQLMENKISTIERGAFQDLKELERLRLNRNHLQLFPELLFLGTAKLYRLDLSENQIQAIPRKAFRGAVDIKNLQLDYNQISCIEDGAFRALRDLEVLTLNNNNITRLSVASFNHMPKLRTFRLHSNNLYCDCHLAWLSDWLRQRPRVGLYTQCMGPSHLRGHNVAEVQKREFVCSGHQSFMAPSCSVLHCPAACTCSNNIVDCRGKGLTEIPTNLPETITEIRLEQNTIKVIPPGAFSPYKKLRRIDLSNNQISELAPDAFQGLRSLNSLVLYGNKITELPKSLFEGLFSLQLLLLNANKINCLRVDAFQDLHNLNLLSLYDNKLQTIAKGTFSPLRAIQTMHLAQNPFICDCHLKWLADYLHTNPIETSGARCTSPRRLANKRIGQIKSKKFRCSAKEQYFIPGTEDYRSKLSGDCFADLACPEKCRCEGTTVDCSNQKLNKIPEHIPQYTAELRLNNNEFTVLEATGIFKKLPQLRKINFSNNKITDIEEGAFEGASGVNEILLTSNRLENVQHKMFKGLESLKTLMLRSNRITCVGNDSFIGLSSVRLLSLYDNQITTVAPGAFDTLHSLSTLNLLANPFNCNCYLAWLGEWLRKKRIVTGNPRCQKPYFLKEIPIQDVAIQDFTCDDGNDDNSCSPLSRCPTECTCLDTVVRCSNKGLKVLPKGIPRDVTELYLDGNQFTLVPKELSNYKHLTLIDLSNNRISTLSNQSFSNMTQLLTLILSYNRLRCIPPRTFDGLKSLRLLSLHGNDISVVPEGAFNDLSALSHLAIGANPLYCDCNMQWLSDWVKSEYKEPGIARCAGPGEMADKLLLTTPSKKFTCQGPVDVNILAKCNPCLSNPCKNDGTCNSDPVDFYRCTCPYGFKGQDCDVPIHACISNPCKHGGTCHLKEGEEDGFWCICADGFEGENCEVNVDDCEDNDCENNSTCVDGINNYTCLCPPEYTGELCEEKLDFCAQDLNPCQHDSKCILTPKGFKCDCTPGYVGEHCDIDFDDCQDNKCKNGAHCTDAVNGYTCICPEGYSGLFCEFSPPMVLPRTSPCDNFDCQNGAQCIVRINEPICQCLPGYQGEKCEKLVSVNFINKESYLQIPSAKVRPQTNITLQIATDEDSGILLYKGDKDHIAVELYRGRVRASYDTGSHPASAIYSVETINDGNFHIVELLALDQSLSLSVDGGNPKIITNLSKQSTLNFDSPLYVGGMPGKSNVASLRQAPGQNGTSFHGCIRNLYINSELQDFQKVPMQTGILPGCEPCHKKVCAHGTCQPSSQAGFTCECQEGWMGPLCDQRTNDPCLGNKCVHGTCLPINAFSYSCKCLEGHGGVLCDEEEDLFNPCQAIKCKHGKCRLSGLGQPYCECSSGYTGDSCDREISCRGERIRDYYQKQQGYAACQTTKKVSRLECRGGCAGGQCCGPLRSKRRKYSFECTDGSSFVDEVEKVVKCGCTRCVS
